Tested on: TβRII receptors (TβRII-A, TβRII-B and TβRII-SE) mRNA in hASCs
Test: RT-PCR / qRT-PCR of TβRII isoform mRNA in transduced hASC
Assay type: cell-based, human
Method: To further assess the agonistic role of the TβRII-SE isoform, hASCs were transduced with Lt-TβRII-SE, Lt-TβRIIA-DN, and Lt.eGFP, at an MOI of 150 as described in the examples. Seventy two hours after transduction the percentage of eGFP expressing cells was measured by flow cytometry (FIG. 11A).
mRNA levels of all three isoforms of Type II TGF-β receptor were also quantified by qRT-PCR (FIG. 13).
Total RNA from different primary cultures and cell lines was isolated using the Absolutely RNA kit (Stratagene, La Jolla, Calif., USA). First-strand cDNA was synthesized by mixing 1 μg of DNA free total RNA, 50 pmol primer p(DT)15 (Roche Diagnostics GmbH, Mannheim, Germany), 0.5 mM deoxyribonucleotide triphosphate, 5 mM dithiothreitol, and 1 U Expand Reverse Transcriptase (Roche Diagnostics GmbH). cDNA corresponding to different isoforms of TβRII receptor was detected by PCR amplification in the presence of Expand High Fidelity polymerase (Roche Diagnostics GmbH), 0.2 mM dNTPS, and 0.5 μM of each primer (forward: 5′[…]3′ (SEQ ID No. 10) and reverse: 5′[…]3′ (SEQ ID No. 11) for 35 cycles using the following PCR conditions: 1 min. at 95° C., 1 min. at 55° C., and 1 min. at […]

- TβRII isoform A expression (RT-PCR, 582 bp band) (transduced hASC): downregulates TβRII isoform A expression
- TβRII-A and B variants mRNA levels (qRT-PCR) (transduced hASC vs untransduced): decreased dramatically
B1: TβRII-SE: 80 amino acid soluble endogenous isoform of human TGF-β receptor II lacking the transmembrane domain, SEQ ID No. 2 (protein, listed as Homo sapiens)
chain: MGRGLLRGLWPLHIVLWTRIASTIPPHVQKSVNNDMIVTDNNGAVKFPQLCKFCDVRFSTCDNQKSCFSKVHYEGKKKAW
